Test results from patent US20050066381A1.

What was measured:
[1] = target: PP1c (PP1cα), protein phosphatase 1 catalytic subunit; experiment: PP1c pull-down from adenovirus-infected cardiomyocytes (I-1 + PKCα dn), I-1 Western blot, quantified
[2] = target: PP1c (PP1cα), protein phosphatase 1 catalytic subunit; experiment: PP1c pull-down from adenovirus-infected cardiomyocytes (I-1 + PKCα wt), I-1 Western blot, quantified
[3] = tested on: recombinant wildtype inhibitor-1 isolated from E. coli
[4] = tested on: recombinant Ser-67-Ala inhibitor-1 isolated from E. coli

PP1c (PP1cα), protein phosphatase 1 catalytic subunit, sequence (P62138 2-330): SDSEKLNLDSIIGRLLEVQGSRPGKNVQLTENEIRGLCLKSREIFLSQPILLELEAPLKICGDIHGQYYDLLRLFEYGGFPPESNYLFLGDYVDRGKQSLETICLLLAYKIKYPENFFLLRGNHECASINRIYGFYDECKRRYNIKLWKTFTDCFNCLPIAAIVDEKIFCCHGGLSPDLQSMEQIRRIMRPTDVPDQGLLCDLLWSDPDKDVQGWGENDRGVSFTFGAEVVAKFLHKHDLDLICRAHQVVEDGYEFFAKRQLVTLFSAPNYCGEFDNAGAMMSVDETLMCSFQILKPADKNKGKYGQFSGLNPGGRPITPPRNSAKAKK

Substance	increase of I-1/PP1c complex formation when dominant negative PKCα is expressed [1]	reduction of I-1 interaction with PP1c when wildtype PKCα is overexpressed [2]	in vitro phosphorylation with 32P-ATP, SDS-PAGE and quantification of radioactivity [3]	in vitro phosphorylation with 32P-ATP, relative to wildtype I-1 [4]
Inhibitor-1 (I-1), expressed from adenovirus in neonatal rat cardiomyocytes	> 70 % increase	50 % reduction		
protein kinase C isolated from rabbit heart muscle			Wildtype I-1 protein was directly phosphorylated in vitro in a time-dependent manner at stoichiometric levels by PKC	approximately 50% less phosphorylation by PKC compared with equal amounts of wildtype protein
